Data taken from patent publication US20220229068A1, “DETECTION OF PROTEIN TO PROTEIN INTERACTIONS” (THE GOVERNING COUNCIL OF THE UNIVERSITY OF TORONTO, priority 2019, published 2022).
Blank lines part the entries; values can stand above or below the binder they belong to.

Assays:
Assay in all cases: SIMPL ELISA, bait-IN/prey-CIC
[1] = molecular target: T1, MAD1L1 (prey, CIC format) (human) (UniProt Q9Y6D9)
T1 sequence (looked up): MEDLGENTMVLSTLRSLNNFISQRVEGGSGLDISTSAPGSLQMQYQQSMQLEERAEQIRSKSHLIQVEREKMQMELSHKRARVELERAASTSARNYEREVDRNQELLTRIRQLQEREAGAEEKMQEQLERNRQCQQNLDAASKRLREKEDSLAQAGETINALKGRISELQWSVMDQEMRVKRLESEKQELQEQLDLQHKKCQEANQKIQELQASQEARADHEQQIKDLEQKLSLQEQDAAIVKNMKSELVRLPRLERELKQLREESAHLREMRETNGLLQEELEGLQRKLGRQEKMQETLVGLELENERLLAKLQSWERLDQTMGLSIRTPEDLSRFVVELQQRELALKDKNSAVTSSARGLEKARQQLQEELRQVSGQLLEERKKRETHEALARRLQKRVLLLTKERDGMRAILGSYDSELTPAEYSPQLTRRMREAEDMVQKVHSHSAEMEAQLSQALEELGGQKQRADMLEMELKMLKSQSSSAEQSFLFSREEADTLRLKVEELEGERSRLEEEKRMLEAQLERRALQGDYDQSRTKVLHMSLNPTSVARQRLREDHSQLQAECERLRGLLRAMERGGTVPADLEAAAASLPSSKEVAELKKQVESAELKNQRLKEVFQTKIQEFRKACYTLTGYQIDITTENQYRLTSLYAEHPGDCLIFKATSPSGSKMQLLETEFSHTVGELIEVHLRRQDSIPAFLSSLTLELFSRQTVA

[2] = molecular target: T2, NTF4 (prey, CIC format) (human) (UniProt P34130)
T2 sequence (looked up): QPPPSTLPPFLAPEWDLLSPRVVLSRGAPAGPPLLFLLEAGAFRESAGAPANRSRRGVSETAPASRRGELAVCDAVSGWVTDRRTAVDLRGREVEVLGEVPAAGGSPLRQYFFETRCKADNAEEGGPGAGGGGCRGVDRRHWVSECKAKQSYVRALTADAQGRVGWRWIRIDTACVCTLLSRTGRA

[3] = molecular target: T3, MCM5 (prey, CIC format) (human) (UniProt P33992)
T3 sequence (looked up): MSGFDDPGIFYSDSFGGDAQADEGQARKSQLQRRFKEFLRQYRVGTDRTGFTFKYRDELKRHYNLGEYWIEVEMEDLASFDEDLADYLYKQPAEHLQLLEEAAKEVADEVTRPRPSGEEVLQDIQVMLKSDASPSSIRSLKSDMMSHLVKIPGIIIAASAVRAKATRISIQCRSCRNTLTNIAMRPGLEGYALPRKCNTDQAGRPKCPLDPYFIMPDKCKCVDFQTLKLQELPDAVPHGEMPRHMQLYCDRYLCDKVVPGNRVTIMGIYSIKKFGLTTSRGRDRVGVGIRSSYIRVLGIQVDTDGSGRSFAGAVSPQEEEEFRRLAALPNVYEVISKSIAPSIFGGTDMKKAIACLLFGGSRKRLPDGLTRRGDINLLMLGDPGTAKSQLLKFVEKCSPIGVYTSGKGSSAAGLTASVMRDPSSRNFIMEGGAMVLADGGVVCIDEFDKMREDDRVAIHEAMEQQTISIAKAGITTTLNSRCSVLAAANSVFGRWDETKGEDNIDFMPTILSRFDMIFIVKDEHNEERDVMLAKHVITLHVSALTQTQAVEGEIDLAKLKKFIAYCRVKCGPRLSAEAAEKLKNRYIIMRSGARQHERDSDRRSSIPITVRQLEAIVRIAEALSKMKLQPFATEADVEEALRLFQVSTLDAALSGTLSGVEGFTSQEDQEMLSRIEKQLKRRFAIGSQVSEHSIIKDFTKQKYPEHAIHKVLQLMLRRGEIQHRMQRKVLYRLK

[4] = molecular target: T4, ORC4 (prey, CIC format) (human) (UniProt O43929)
T4 sequence (looked up): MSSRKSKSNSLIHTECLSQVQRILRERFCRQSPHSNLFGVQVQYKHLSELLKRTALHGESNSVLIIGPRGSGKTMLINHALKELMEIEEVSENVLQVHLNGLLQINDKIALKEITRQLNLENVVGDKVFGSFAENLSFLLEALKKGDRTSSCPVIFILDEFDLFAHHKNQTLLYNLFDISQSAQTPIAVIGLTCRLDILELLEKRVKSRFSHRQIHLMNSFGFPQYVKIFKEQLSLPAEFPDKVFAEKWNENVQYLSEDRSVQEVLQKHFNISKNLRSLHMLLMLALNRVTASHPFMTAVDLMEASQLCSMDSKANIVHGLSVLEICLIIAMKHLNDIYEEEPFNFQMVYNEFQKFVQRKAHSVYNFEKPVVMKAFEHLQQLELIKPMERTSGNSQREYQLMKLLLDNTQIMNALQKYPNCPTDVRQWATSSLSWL

[5] = molecular target: UBE2I (prey, CIC format) (human) (UniProt P63279)
[6] = molecular target: T5, MCM10 (prey, CIC format) (human) (UniProt Q7L590)
T5 sequence (looked up): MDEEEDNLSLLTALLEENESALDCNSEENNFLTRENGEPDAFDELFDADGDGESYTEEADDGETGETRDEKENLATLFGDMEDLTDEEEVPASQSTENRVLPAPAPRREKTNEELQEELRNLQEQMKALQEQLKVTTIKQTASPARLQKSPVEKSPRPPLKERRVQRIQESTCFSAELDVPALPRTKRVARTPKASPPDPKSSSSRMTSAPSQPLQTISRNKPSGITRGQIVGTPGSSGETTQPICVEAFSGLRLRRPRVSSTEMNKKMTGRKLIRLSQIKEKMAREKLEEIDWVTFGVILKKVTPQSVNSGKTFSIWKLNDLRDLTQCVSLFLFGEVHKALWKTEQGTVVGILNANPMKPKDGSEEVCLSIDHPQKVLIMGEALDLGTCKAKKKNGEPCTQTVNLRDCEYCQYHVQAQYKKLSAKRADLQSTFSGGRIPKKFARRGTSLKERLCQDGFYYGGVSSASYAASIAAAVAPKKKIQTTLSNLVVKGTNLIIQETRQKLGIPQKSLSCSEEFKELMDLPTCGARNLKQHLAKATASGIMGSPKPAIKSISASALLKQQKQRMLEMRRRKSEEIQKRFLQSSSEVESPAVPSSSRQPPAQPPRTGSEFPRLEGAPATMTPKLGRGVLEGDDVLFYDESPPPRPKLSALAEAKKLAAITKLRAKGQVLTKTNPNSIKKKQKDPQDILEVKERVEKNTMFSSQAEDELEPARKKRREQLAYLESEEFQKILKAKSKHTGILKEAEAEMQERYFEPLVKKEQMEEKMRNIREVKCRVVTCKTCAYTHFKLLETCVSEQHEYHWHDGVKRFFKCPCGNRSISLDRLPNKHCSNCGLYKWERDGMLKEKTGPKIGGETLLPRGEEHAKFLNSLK

[7] = molecular target: HBB (prey, CIC format) (human) (UniProt P68871)
[8] = molecular target: T6, FRS2 (prey, CIC format) (human) (UniProt Q8WU20)
T6 sequence (looked up): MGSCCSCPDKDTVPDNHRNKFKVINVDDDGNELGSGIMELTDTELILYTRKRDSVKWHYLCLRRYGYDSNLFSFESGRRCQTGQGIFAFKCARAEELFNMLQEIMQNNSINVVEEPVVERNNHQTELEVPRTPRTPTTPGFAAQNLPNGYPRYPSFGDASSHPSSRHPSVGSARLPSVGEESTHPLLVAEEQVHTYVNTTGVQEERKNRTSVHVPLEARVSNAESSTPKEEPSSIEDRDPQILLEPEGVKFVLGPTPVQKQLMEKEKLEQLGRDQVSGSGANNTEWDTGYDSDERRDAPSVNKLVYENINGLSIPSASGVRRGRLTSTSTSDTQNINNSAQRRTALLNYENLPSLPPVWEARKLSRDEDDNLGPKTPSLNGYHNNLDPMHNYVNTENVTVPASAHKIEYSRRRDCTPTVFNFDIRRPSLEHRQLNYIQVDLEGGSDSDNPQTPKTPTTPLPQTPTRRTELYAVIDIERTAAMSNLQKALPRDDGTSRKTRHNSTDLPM

[9] = molecular target: EIF3E (prey, CIC format) (human) (UniProt P60228)
[10] = molecular target: RELA (prey, CIC format) (human) (UniProt Q04206)
Chain of RELA (prey, CIC format) (human) (Q04206 whole entry): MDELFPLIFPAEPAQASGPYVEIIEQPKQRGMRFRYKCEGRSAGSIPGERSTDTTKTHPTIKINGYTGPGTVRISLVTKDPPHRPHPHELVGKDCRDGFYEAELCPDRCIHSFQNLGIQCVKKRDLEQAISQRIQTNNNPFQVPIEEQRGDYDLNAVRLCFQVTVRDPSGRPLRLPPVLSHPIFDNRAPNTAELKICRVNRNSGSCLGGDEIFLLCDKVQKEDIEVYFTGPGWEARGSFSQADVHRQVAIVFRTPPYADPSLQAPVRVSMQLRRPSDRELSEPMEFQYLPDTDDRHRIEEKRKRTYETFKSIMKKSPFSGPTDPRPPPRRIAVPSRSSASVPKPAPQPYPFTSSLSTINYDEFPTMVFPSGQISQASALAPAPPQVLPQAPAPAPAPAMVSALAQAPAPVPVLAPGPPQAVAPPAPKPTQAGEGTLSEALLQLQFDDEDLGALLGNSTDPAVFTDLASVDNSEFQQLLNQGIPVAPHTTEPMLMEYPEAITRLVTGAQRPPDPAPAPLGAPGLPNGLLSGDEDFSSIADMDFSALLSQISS

Chain of UBE2I (prey, CIC format) (human) (P63279 whole entry): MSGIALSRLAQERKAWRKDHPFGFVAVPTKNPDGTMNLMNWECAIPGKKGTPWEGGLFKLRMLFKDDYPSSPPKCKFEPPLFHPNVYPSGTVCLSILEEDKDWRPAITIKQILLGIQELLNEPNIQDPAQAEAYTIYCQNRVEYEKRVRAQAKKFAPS
Chain of EIF3E (prey, CIC format) (human) (P60228 whole entry): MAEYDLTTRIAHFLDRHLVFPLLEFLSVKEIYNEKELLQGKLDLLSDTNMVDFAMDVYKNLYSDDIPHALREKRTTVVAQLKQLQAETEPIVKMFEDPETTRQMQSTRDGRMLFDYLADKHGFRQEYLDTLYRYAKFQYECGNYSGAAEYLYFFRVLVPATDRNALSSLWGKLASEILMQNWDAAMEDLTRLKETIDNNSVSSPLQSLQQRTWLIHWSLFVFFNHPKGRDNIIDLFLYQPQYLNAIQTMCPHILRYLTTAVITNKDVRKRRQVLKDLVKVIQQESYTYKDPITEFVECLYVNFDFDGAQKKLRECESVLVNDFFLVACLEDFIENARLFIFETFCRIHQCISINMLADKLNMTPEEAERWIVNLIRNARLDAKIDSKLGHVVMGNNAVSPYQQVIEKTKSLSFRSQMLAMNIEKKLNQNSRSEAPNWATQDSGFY
Chain of HBB (prey, CIC format) (human) (P68871 whole entry): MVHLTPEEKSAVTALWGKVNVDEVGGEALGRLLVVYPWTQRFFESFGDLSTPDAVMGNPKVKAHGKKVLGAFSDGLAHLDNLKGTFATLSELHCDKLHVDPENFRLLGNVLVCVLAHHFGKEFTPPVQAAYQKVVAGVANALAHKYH

- PLU mean [1]: 0.19
- PLU mean [2]: 0.629
- PLU mean [3]: 0.22
B1: BDNF (bait, IN format) (ligand, human, UniProt P23560 19-247, looked up)
chain: APMKEANIRGQGGLAYPGVRTHGTLESVNGPKAGSRGLTSLADTFEHVIEELLDEDQKVRPNEENNKDADLYTSRVMLSSQVPLEPPLLFLLEEYKNYLDAANMSMRVRRHSDPARRGELSVCDSISEWVTAADKKTAVDMSGGTVTVLEKVPVSKGQLKQYFYETKCNPMGYTKEGCRGIDKRHWNSQCRTTQSYVRALTMDSKKRIGWRFIRIDTSCVCTLTIKRGR

- PLU mean [4]: 0.297
- PLU mean [5]: 0.119
- PLU mean [6]: 0.43
- PLU mean [7]: 0.227
B2: ORC2 (bait, IN format) (protein, human, UniProt Q13416 1-577, looked up)
chain: MSKPELKEDKMLEVHFVGDDDVLNHILDREGGAKLKKERAQLLVNPKKIIKKPEYDLEEDDQEVLKDQNYVEIMGRDVQESLKNGSATGGGNKVYSFQNRKHSEKMAKLASELAKTPQKSVSFSLKNDPEITINVPQSSKGHSASDKVQPKNNDKSEFLSTAPRSLRKRLIVPRSHSDSESEYSASNSEDDEGVAQEHEEDTNAVIFSQKIQAQNRVVSAPVGKETPSKRMKRDKTSDLVEEYFEAHSSSKVLTSDRTLQKLKRAKLDQQTLRNLLSKVSPSFSAELKQLNQQYEKLFHKWMLQLHLGFNIVLYGLGSKRDLLERFRTTMLQDSIHVVINGFFPGISVKSVLNSITEEVLDHMGTFRSILDQLDWIVNKFKEDSSLELFLLIHNLDSQMLRGEKSQQIIGQLSSLHNIYLIASIDHLNAPLMWDHAKQSLFNWLWYETTTYSPYTEETSYENSLLVKQSGSLPLSSLTHVLRSLTPNARGIFRLLIKYQLDNQDNPSYIGLSFQDFYQQCREAFLVNSDLTLRAQLTEFRDHKLIRTKKGTDGVEYLLIPVDNGTLTDFLEKEEEEA

- PLU mean [8]: 0.474
B3: PTPN11 (bait, IN format) (enzyme, human, UniProt Q06124 1-593, looked up)
chain: MTSRRWFHPNITGVEAENLLLTRGVDGSFLARPSKSNPGDFTLSVRRNGAVTHIKIQNTGDYYDLYGGEKFATLAELVQYYMEHHGQLKEKNGDVIELKYPLNCADPTSERWFHGHLSGKEAEKLLTEKGKHGSFLVRESQSHPGDFVLSVRTGDDKGESNDGKSKVTHVMIRCQELKYDVGGGERFDSLTDLVEHYKKNPMVETLGTVLQLKQPLNTTRINAAEIESRVRELSKLAETTDKVKQGFWEEFETLQQQECKLLYSRKEGQRQENKNKNRYKNILPFDHTRVVLHDGDPNEPVSDYINANIIMPEFETKCNNSKPKKSYIATQGCLQNTVNDFWRMVFQENSRVIVMTTKEVERGKSKCVKYWPDEYALKEYGVMRVRNVKESAAHDYTLRELKLSKVGQGNTERTVWQYHFRTWPDHGVPSDPGGVLDFLEEVHHKQESIMDAGPVVVHCSAGIGRTGTFIVIDILIDIIREKGVDCDIDVPKTIQMVRSQRSGMVQTEAQYRFIYMAVQHYIETLQRRIEEEQKSKRKGHEYTNIKYSLADQTSGDQSPLPPCTPTPPCAEMREDSARVYENVGLMQQQKSFR

- PLU mean [9]: 0.676
- PLU mean [10]: 0.328
B4: IFIT1 (bait, IN format) (protein, human, UniProt P09914 1-478, looked up)
chain: MSTNGDDHQVKDSLEQLRCHFTWELSIDDDEMPDLENRVLDQIEFLDTKYSVGIHNLLAYVKHLKGQNEEALKSLKEAENLMQEEHDNQANVRSLVTWGNFAWMYYHMGRLAEAQTYLDKVENICKKLSNPFRYRMECPEIDCEEGWALLKCGGKNYERAKACFEKVLEVDPENPESSAGYAISAYRLDGFKLATKNHKPFSLLPLRQAVRLNPDNGYIKVLLALKLQDEGQEAEGEKYIEEALANMSSQTYVFRYAAKFYRRKGSVDKALELLKKALQETPTSVLLHHQIGLCYKAQMIQIKEATKGQPRGQNREKLDKMIRSAIFHFESAVEKKPTFEVAHLDLARMYIEAGNHRKAEENFQKLLCMKPVVEETMQDIHFHYGRFQEFQKKSDVNAIIHYLKAIKIEQASLTRDKSINSLKKLVLRKLRRKALDLESLSLLGFVYKLEGNMNEALEYYERALRLAADFENSVRQGP
